Test results taken from patent publication US20230144876A1 (UNIVERSITY OF KITAKYUSHU, published 2023).

Target: T1, MHC-1 (MHC class I molecules) on murine dendritic cell line DC2.4 cells (mouse, UniProt P01887 21-119; P01901 22-369)
T1 construct: whole, on cells; also called H-2Kb
T1 sequence (MHC heavy, looked up): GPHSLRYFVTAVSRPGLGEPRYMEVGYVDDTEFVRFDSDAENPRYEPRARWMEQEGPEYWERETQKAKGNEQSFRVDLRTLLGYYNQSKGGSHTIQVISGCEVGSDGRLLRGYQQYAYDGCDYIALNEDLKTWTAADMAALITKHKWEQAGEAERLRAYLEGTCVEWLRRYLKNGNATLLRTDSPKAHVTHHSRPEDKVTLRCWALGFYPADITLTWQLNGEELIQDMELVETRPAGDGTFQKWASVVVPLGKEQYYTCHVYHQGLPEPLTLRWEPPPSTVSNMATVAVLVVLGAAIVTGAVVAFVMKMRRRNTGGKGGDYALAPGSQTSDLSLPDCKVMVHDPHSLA
T1 sequence (b2m, looked up): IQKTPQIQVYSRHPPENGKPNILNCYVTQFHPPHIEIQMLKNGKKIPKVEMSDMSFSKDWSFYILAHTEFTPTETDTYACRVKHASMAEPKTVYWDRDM
Assay: competitive inhibition of OVA peptide 1 binding to MHC-1 on DC2.4 cells, flow cytometry
Procedure: Murine dendritic cell line, DC2.4 cells, were detached from a dish, and suspended in 1.5 mL tubes at a concentration of 1.5×10⁵ cells per […] of PBS.

B1: C-TRP2-9 (cysteine added to the N-terminus of residues 180 to 188 of mTRP2) (peptide)
peptide: CSVYDFFVWL
notes: 10-mer; N-terminal Cys plus mTRP2 180-188; Free peptide in the assay
- binding result: no binding (tested: 2.5 µg/mL)
